Measurements: article PMC3334467 (Immunity, 2012)

Molecular target: T1, MBP-AIM2 HIN domain (human, UniProt O14862 144-343)
T1 sequence (looked up): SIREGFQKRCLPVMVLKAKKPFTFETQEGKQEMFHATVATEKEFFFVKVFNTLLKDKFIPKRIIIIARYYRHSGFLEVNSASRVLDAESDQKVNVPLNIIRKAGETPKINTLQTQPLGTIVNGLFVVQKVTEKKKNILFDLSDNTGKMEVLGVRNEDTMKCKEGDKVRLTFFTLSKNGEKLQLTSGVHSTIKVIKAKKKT
Assay: fluorescence polarisation

- IC50: 11 µM
B1: AIM2 PYD domain, wild type (residues 1–107), as used in the FP inhibition assay (domain or fragment, human, UniProt O14862 1-107, looked up)
chain: MESKYKEILLLTGLDNITDEELDRFKFFLSDEFNIATGKLHTANRIQVATLMIQNAGAVSAVMKTIRIFQKLNYMLLAKRLQEEKEKVDKQYKSVTKPKPLSQAEMS
